Measured values reported in patent US20240417754.

Tested on: T1, Pf80 large serine recombinase
T1 sequence: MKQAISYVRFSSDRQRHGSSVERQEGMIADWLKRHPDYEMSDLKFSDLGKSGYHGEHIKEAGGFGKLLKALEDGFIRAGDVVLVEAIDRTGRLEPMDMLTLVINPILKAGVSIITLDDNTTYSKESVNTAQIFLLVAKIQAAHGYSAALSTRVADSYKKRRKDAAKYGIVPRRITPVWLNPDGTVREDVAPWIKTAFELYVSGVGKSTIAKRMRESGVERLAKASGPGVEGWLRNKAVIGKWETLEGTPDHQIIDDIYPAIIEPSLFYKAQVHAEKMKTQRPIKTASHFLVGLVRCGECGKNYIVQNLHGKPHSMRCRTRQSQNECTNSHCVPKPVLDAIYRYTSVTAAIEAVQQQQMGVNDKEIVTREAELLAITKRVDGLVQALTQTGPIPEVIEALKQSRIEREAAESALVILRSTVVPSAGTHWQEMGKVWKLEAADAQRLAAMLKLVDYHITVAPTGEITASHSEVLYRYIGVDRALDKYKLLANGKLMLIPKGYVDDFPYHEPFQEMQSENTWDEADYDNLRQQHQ
Assay: cell_activity
Conditions: share of unique integration reads at predicted site

Pf80 attH (FKBP2 exon)
on-target integration read share: 34.3%
